Experimental data as given in article PMC10769870, “Bdellovibrio bacteriovorus uses chimeric fibre proteins to recognize and invade a broad range of bacterial hosts” (Nature Microbiology, 2024).

What was measured:
[1] = molecular target: the molecule itself; assay: crystal structure; Bd3182_(632–922) crystallised by vapour diffusion at 18 °C in three forms (Morpheus C1, P2_1; Morpheus G12, I2; Proplex E3, another P2_1); the 1.1 Å form is described
[2] = molecular target: the molecule itself; assay: crystal structure; Bd2133_(662–1,031), native and selenomethionine-labelled, Morpheus B3, spacegroup P6_322, 2.5 Å
[3] = molecular target: the molecule itself; assay: crystal structure; Bd1334_(914–1,151), PACT B9, spacegroup R3, 1.4 Å
[4] = molecular target: the molecule itself; assay: crystal structure; Bd2740_(518–627), MIDAS F1, spacegroup P2_12_12_1, 2.6 Å
[5] = molecular target: the molecule itself; assay: crystal structure; Bd2133_(910–1,031), Morpheus A4, spacegroup P2_12_12_1, 1 Å
[6] = molecular target: the molecule itself; assay: crystal structure; Bd2439_(837–1,107), PACT H3 (P2_122_1) and MIDASplus E9 (P4); with ethylene glycol (1.6 Å) or GlcNAc–MurNAc (1.84 Å)
[7] = molecular target: the molecule itself; assay: crystal structure; Bd2734_(691–843), JCSG+ A3, spacegroup P2_1, 1.8 Å
[8] = molecular target: the molecule itself; assay: crystal structure; Bd1334_(818–1,151), Morpheus C1, spacegroup C2, 2.6 Å

B1: Bd3182_(632–782), mature tip region of the MAT (mosaic adhesive trimer) fibre protein Bd3182 (domain or fragment, Bdellovibrio bacteriovorus HD100, UniProt Q6MIH5 632-782, looked up)
chain: GTNDAFSLSFETNNTPRMTIDDVGRVGVGTTAPTSALHVIGTGEVARFVTSATGGVVIDSTALNYNPSLIYRKTNINRWSMMVNAASETGGNAGSNLSILRYDDTGATLGAAVTIDRASGFFGINTAAPAYNIHVTGTAGLSTGSAWTVAS
notes: Bd3182 of Bdellovibrio bacteriovorus HD100, S74-group MAT fibre protein; expressed as residues 632-922, the S74 chaperone/protease domain cuts itself off at catalytic residue S782; the fibre part, labelled 632-782, was crystallised; the model traces P647 to A781; The methods name the cloned construct once as 668-922 and elsewhere as 632-922; also called Bd3182_(632–922) (construct before …)
- stoichiometry N [1]: 3

B2: Bd2133_(662–1,031), tip of the NS74 MAT fibre protein Bd2133 (domain or fragment, Bdellovibrio bacteriovorus HD100, UniProt Q6ML84 662-1031, looked up)
chain: NSSGALGLSTSGSERMRIDTSGNLGLGTAAPTSALHVERTQDADTTVQVRNTHDTGTAAGARFIASNEKSGIWFGISGTSNTNTGLGSPGDAYIYNAAGTATGKNLNVINNQTGNIHFFAGSTATGTPRMTITNTGLVGINTAAPLQKLHVENGNMVITGTAPAYQLKENDTTDQNWQMGINNGNLRFATQNDALNSSSDKVVISQAGNVGIGATAPTAKLEVAGTIHSTSGGIKFPDGSVQTTAASGAATWTSLGLTSLGAVSMTTTTEQSFTLPVAAQTASQILVYLRCHSGNASTTGADDIRIYTKEGAATYDHYLLMFPYAGQGAVGYNSDSFWLPKTSDNKIYLAHSMAPGSANSGCNFYITGYK
notes: Bd2133 of Bdellovibrio bacteriovorus HD100, N662 to the C-terminus (K1031); A selenomethionine-labelled form was also crystallised for phasing; source: E. coli BL21 RIPL (DE3), purified (Ni-NTA, TEV, Ni-NTA, Superdex 200)
- stoichiometry N [2]: 3

B3: Bd1334_(914–1,151) (domain or fragment, Bdellovibrio bacteriovorus HD100, UniProt Q6MNC5 914-1151, looked up)
chain: SAGTLAAPTAVTSGQSLTSLTAFAYNGTQYQSGGNASINFVATEAHTASAGGAKIIFNTTNNGATGSTEKVVIDQNGNVGVGVGAPTAKMDVNGGIKQPNYGIISAVRNSGGVTASMPWTNAYVLAHQGEMHQWVAGGPILQDSVTGCNAGPDAGVKFDSIATSWGGPYKVIFHTTGSNGAIHLEWSGWQVSLKNSAGTELAIGMGQVFATLHYDPAVSNWRVEHMFGRINNTNFTCW
notes: Bd1334 of Bdellovibrio bacteriovorus HD100, S914 to the C-terminus (W1151); also called Bd1334 from S914 onwards; source: E. coli BL21 RIPL (DE3), purified (Ni-NTA, TEV, Ni-NTA, Superdex 200)
- stoichiometry N [3]: 3

B4: Bd2740_(518–627), tip of the NS74 MAT fibre protein Bd2740 (domain or fragment, Bdellovibrio bacteriovorus HD100, UniProt Q6MJN2 518-627, looked up)
chain: APCDSGWTLINKGDPFCAKQQSVTGTNFATSMTQCLNNGGKLCDLQEAVGMCQTGFIPSNTTLWISQLADNSSAHVINCTSGSWSAGFYGFGVTVDGSNPILPYCCKGRR
notes: Bd2740 of Bdellovibrio bacteriovorus HD100 (627 aa), C-type lectin fold tip, residues 518-627 (the results print 517-626); Synthesised gene in pET29a; an Ala-Ser linker follows the hexa-His tag; source: E. coli BL21 RIPL (DE3), purified (Ni-NTA, Superdex 200)
- stoichiometry N [4]: 3

B5: Bd2133_(910–1,031), tip-only variant of Bd2133 (domain or fragment, Bdellovibrio bacteriovorus HD100, UniProt Q6ML84 910-1031, looked up)
chain: AATWTSLGLTSLGAVSMTTTTEQSFTLPVAAQTASQILVYLRCHSGNASTTGADDIRIYTKEGAATYDHYLLMFPYAGQGAVGYNSDSFWLPKTSDNKIYLAHSMAPGSANSGCNFYITGYK
notes: Bd2133 of Bdellovibrio bacteriovorus HD100, β-sandwich tip domain, A910 to the C-terminus (1031); Made by deletion from the plasmid of Bd2133_(662–1,031); also called tip-only variant (A910 onwards); source: E. coli BL21 RIPL (DE3), purified (Ni-NTA, TEV, Ni-NTA, Superdex 200)
- binding result [5]: binds

B6: Bd2439_(837–1,107), tip of the NS74 MAT fibre protein Bd2439 (domain or fragment, Bdellovibrio bacteriovorus HD100, UniProt Q6MKF5 837-1107, looked up)
chain: GGLDIVNNATGDDNRDDLNIRTYGATETSSLIMLRARGTASAPAAVQTGDRLGGVLFRGWNGTAWMGSGQILSVAEENFTTAVKTNLQFHVGGAGEAMRISNTGNVGIGTTTTTEKLNVQGNVAVSGEITSVRSWGIKRGPTSFSANYINVWNSGYHVGSSIDCTTSTTGCRILKAGTYEIRCVQRAGTSGNSVYVGIALNGDRTALESRNDVLWNHSHTAYSGSYTESNFMGTLSANDLITCGAPVNTMAADLVYAVPAYNGTMQIKRVD
notes: Bd2439 of Bdellovibrio bacteriovorus HD100, G837-D1107 (β-helix N850-V968, R969 linker, TNF-like tip S970-D1107); pET26b construct; source: E. coli BL21 RIPL (DE3), purified (Ni-NTA, Superdex 200)
- stoichiometry N [6]: 3

B7: Bd2734_(691–843), tip-only variant of the NS74 MAT fibre protein Bd2734 (domain or fragment, Bdellovibrio bacteriovorus HD100, UniProt Q6MJN8 691-843, looked up)
chain: TSTLMGSLTMLGKAGCQWEHANTSFASFSNVVACNTATVTGLASAPTEGKIPGIRFANLPAGDYELTVLIFSMYPVDAGVYCRYRLWDGTNFSGMAGAYESEIYQMTGLFSYATDQTNLTFYVQAQTLTATKNCRADITVPGQDKMQIYLKKL
notes: Bd2734 of Bdellovibrio bacteriovorus HD100 (843 aa), TNF-like tip, T691-L843; pET26b construct; The count of three copies rests on the discussion's word that trimerization is invariant in the six solved MATs; source: E. coli BL21 RIPL (DE3), purified (Ni-NTA, Superdex 200)
- binding result [7]: binds

B8: Bd1334_(818–1,151), tip of the NS74 MAT fibre protein Bd1334 (domain or fragment, Bdellovibrio bacteriovorus HD100, UniProt Q6MNC5 818-1151, looked up)
chain: SSAETDFATAVNGNLRFYTAAAGTDSERMRITGSGLVGIGTPAPAVPLQVATRVPSSAVHPNRAGIQAVGEGTDVGGRISALVSSTIEMATFSGYQSAGTLAAPTAVTSGQSLTSLTAFAYNGTQYQSGGNASINFVATEAHTASAGGAKIIFNTTNNGATGSTEKVVIDQNGNVGVGVGAPTAKMDVNGGIKQPNYGIISAVRNSGGVTASMPWTNAYVLAHQGEMHQWVAGGPILQDSVTGCNAGPDAGVKFDSIATSWGGPYKVIFHTTGSNGAIHLEWSGWQVSLKNSAGTELAIGMGQVFATLHYDPAVSNWRVEHMFGRINNTNFTCW
notes: Bd1334 of Bdellovibrio bacteriovorus HD100, S818 to the C-terminus (W1151); The cloning paragraph prints this construct as Bd1334_(818–1,031); everywhere else it is 818–1,151; source: E. coli BL21 RIPL (DE3), purified (Ni-NTA, TEV, Ni-NTA, Superdex 200)
- stoichiometry N [8]: 3
